Assay results from patent publication US20210139579A1 (published 2021).

Each binder was assayed against hFc-hROR1 (fusion protein of the extracellular domain of human ROR1 and the Fc domain of human IgG1) (human, UniProt P01857 99-330 = IgG part) (assay: SPR).
hFc-hROR1 (fusion protein of the extracellular domain of human ROR1 and the Fc domain of human IgG1), sequence (P01857 other isoform, or with tags, fused parts or gaps): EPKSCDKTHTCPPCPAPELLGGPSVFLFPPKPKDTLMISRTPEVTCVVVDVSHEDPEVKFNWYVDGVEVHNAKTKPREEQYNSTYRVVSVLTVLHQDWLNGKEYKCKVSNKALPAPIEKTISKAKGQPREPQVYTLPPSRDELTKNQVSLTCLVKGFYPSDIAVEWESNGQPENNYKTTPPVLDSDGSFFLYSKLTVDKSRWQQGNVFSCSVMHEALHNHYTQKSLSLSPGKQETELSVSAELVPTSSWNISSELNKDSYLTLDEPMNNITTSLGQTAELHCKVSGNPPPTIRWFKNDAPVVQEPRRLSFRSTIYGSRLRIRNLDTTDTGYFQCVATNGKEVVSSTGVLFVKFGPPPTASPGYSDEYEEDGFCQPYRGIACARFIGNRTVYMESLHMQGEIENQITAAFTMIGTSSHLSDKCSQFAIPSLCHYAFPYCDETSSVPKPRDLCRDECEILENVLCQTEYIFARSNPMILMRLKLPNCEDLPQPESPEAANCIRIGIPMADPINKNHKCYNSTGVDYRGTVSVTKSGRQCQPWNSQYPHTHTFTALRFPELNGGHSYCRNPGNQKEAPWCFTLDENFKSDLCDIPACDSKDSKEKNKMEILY

Binder	Kd
XBR1-402 chimeric rabbit/human Fab (Fab, V domains shown) VH: QEQQKESGGGLFKPTDTLTLTCTASGFDISSYYMSWVRQAPGNGLEWIGAIGISGNAYYASWAKSRSTITRNTNLNTVTLKMTSLTAADTATYFCARDHPTYGMDLWGPGTLVTVSS VL: SYELTQLPSVSVSLGQTARITCEGNNIGSKAVHWYQQKPGLAPGLLIYDDDERPSGVPDRFSGSNSGDTATLTISGAQAGDEADYYCQVWDSSAYVFGGGTQLTVTG	5.81 nM
ERR1-301 chimeric rabbit/human Fab (Fab, V domains shown) VH: QEQLEESGGGLVTPGGSLTLTCTASGFTISTYHMSWVRQAPGKGLEWIGSIYAGSGSTYYASWVNGRFTISSNTTQNTVSLQMNSLTVADTATYFCARDHPSYGMDLWGPGTLVTVSS VL: SYELTQLPSVSVSLGQTARITCGGNSIGSKAVNWYQQKPGLAPGLLIYDDDERPSGVPDRFSASNSGDTATLTISGAQAEDEADYYCQLWDSSAVAYVFGGGTQLTVTG	118 nM

Next, values leading:

Kd	Binder
41.6 nM	ERR1-403 chimeric rabbit/human Fab (Fab, V domains shown) VH: QEQLKESGRGLVQPGGSLKLSCKASGFDFSGWYMTWVRQAPGKGLEWIGTIGTTKGRTYYASWVNGRFTISSDNAQNTVDLQMNSLTAADRATYFCVRGSDYFDLWGPGTLVTISS VL: SYELTQLPSVSVSLGQTARITCGGNSIGSKAVNWYQQKPGLAPGLLIYDDDERPSGVPARFSGSNSGDTATLTISGAQAGDEADYYCQLWDSSAGAYVFGGGTQLTVTG
1.11 nM	ERR1-TOP43 chimeric rabbit/human Fab (Fab, V domains shown) VH: QSLEESGGRLVTPGTPLTLTCTVSGFSLSSYWMSWVRQAPGKGLEWIGAIYGSGNTYYASWAKGRFTISKTSTTVDLKITSPTTEDTATYFCARDVHSTATDLWGPGTLVTISS VL: SYELTQLPSVSVSLGQTARITCGGNNIGSKAVNWYQQKPGLAPGLLIYNDDERPSGVPDRFSGSNSGDTATLTISGAQAGDEADYYCQLWDSSAGAYVFGGGTQLTVTG
